Measured values reported in publication PMC5286520 (2017).
Bridge positions count the residues as written; N and C are the ends. Square brackets hold non-standard residues; d marks the D form. Ends that are not written are not given here.

Key:
V1aR [1] = biological target: T1, V1aR (Homo sapiens, UniProt P37288); experiment: radioligand displacement
V1bR = biological target: T2, V1bR (Homo sapiens, UniProt P47901); experiment: radioligand displacement
T2 chain: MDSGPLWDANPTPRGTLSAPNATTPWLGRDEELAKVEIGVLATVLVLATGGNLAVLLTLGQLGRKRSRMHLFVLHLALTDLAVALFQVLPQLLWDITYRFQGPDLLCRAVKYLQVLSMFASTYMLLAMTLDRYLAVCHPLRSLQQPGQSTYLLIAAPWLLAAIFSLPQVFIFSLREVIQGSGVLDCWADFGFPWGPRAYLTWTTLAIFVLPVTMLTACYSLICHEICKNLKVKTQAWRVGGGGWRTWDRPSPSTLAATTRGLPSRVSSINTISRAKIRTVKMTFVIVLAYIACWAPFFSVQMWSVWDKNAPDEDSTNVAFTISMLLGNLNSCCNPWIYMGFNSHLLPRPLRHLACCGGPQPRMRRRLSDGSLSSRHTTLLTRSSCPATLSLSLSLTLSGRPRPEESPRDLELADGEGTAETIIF

OTR = biological target: T3, OTR (Homo sapiens, UniProt P30559); experiment: radioligand displacement
T3 chain: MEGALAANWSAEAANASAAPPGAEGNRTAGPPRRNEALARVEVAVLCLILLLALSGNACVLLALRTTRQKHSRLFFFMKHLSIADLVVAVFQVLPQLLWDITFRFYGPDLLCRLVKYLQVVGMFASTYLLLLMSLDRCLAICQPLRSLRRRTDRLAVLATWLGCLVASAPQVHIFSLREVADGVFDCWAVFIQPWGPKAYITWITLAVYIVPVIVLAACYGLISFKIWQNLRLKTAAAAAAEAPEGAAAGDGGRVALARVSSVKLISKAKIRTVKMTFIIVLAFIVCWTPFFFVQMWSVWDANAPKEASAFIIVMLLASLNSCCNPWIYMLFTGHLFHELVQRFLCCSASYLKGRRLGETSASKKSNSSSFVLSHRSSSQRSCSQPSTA

V1aR [2] = biological target: T1, V1aR; experiment: Schild analysis (IP1 assay)

T1 sequence (P37288 whole entry): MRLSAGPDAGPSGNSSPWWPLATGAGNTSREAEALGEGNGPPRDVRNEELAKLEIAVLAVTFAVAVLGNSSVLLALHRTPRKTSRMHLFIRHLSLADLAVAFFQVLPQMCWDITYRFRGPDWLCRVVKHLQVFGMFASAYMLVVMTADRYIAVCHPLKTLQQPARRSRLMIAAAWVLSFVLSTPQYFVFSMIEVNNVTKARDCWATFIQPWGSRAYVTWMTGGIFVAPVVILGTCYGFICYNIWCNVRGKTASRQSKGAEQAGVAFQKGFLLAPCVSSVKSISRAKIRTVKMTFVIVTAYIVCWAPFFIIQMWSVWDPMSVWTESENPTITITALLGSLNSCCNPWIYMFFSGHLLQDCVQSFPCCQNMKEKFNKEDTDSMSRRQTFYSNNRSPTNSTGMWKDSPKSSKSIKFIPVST

## CLITNCP[dR]G-NH2 (disulfide 1-6 (inferred)) [[D-Arg8]-inotocin]
V1aR [1]
  Ki: 0.0013 µM
V1bR
  Ki: > 100 µM
OTR
  Ki: > 4 µM
V1aR [2]
  Ki: ~0.016 µM
